Where no end group is shown, it is not given here. [ ]: non-standard residue; d: D form. The star is where a group is joined. Desaminotyrosyl = O=C(CCc1ccc(O)cc1)*

This assay deals with Ghrelin/GHRP/GHS Receptor (Rattus norvegicus, UniProt O08725). Description: In vitro GH release from isolated pituitary glands, pituitary incubation method. Conditions: Table 1. It counts as cell-based. The protocol: Hormonal activities were obtained from in vitro studies using pituitaries of 20 day old CD-1 strain Sprague Dawley female rats. Two pituitaries were incubated for a total of 4-6 hours. Medium was removed each hour for RIA of GH level and fresh medium was added again. After two one hour preincubation periods (P1-P2), the vehicle/peptides were added to two one hour incubations (I3-I4). Peptide activity was calculated as the change in the hormonal level (delta) between I3+I4 and P2. For antagonist activity, the incubation was continued for 2 additional hours (I5-I6) where both the peptide and a stimulator of GH secretion was added and the antagonist activity was calculated as the change in the hormonal level (delta) between I5+I6 and P2. The peptides were assayed in triplicate and the hormone was assayed in duplicate. Each value recorded represents the mean of 6. The GH RIA reagents were distributed by the NIH. Control data was collected from isolated pituitary glands treated with only the corresponding vehicle in the absence of peptide or stimulator. Control stimulated data was collected from isolated pituitary glands treated with stimulator alone in the absence of any peptide.
Ghrelin/GHRP/GHS Receptor, sequence (O08725 whole entry): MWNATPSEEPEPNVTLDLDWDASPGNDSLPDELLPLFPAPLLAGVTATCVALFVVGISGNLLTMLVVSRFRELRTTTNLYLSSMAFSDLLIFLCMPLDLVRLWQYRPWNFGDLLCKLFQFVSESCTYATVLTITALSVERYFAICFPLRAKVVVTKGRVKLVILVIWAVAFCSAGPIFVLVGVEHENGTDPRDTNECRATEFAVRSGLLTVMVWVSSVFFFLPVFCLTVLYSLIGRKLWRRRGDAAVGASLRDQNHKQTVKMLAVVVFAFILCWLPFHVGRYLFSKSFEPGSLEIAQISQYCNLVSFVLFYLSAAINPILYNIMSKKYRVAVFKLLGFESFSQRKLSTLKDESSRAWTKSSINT

Setting [1] is: peptide antagonist 10 μg/ml + stimulator His-DTrp-Ala-Trp-DPhe-Lys-NH2 10 ng/ml.
The mark [2] stands for this setting: peptide antagonist 30 μg/ml + stimulator His-DTrp-Ala-Trp-DPhe-Lys-NH2 10 ng/ml.
[3] abbreviates: peptide antagonist 3 μg/ml + stimulator His-DTrp-Ala-Trp-DPhe-Lys-NH2 10 ng/ml.
Setting [4] is: peptide antagonist 0.3 μg/ml + stimulator His-DTrp-Ala-Trp-DPhe-Lys-NH2 10 ng/ml.
[5] abbreviates: peptide antagonist 1 μg/ml + stimulator His-DTrp-Ala-Trp-DPhe-Lys-NH2 10 ng/ml.

As for “DeaminoTyr-DTrp-Ser-Trp-DPhe-Lys-NH2 ([Desaminotyrosyl][dW]SW[dF]K-NH2; SMILES NCCCC[C@H](NC(=O)[C@@H](Cc1ccccc1)NC(=O)[C@H](Cc1c[nH]c2ccccc12)NC(=O)[C@H](CO)NC(=O)[C@@H](Cc1c[nH]c2ccccc12)NC(=O)CCc1ccc(O)cc1)C(N)=O)”, the “Change in stimulated GH release versus preincubation (delta)” value (shortened to “Change … (delta)”) runs as follows: under setting [1], 3325 ± 391 ng/mL; under setting [2], 3810 ± 621 ng/mL.

In the case of “DesaminoTyr-DTrp-Ala-Trp-DPhe-NH2 ([Desaminotyrosyl][dW]AW[dF]-NH2; SMILES C[C@H](NC(=O)[C@@H](Cc1c[nH]c2ccccc12)NC(=O)CCc1ccc(O)cc1)C(=O)N[C@@H](Cc1c[nH]c2ccccc12)C(=O)N[C@H](Cc1ccccc1)C(N)=O)”, the “Change … (delta)” value runs as follows: under setting [3], 1302 ± 269 ng/mL; under setting [2], -959 ± 75 ng/mL.

For “DesaminoTyr-DTrp-DLys-Trp-DPhe-NH2 ([Desaminotyrosyl][dW][dK]W[dF]-NH2; SMILES NCCCC[C@@H](NC(=O)[C@@H](Cc1c[nH]c2ccccc12)NC(=O)CCc1ccc(O)cc1)C(=O)N[C@@H](Cc1c[nH]c2ccccc12)C(=O)N[C@H](Cc1ccccc1)C(N)=O)”, the “Change … (delta)” value is, setting by setting: (peptide antagonist 0.1 μg/ml + stimulator His-DTrp-Ala-Trp-DPhe-Lys-NH2 10 ng/ml) 4297 ± 1061 ng/mL; under setting [4], 2404 ± 802 ng/mL; under setting [5], 688 ± 327 ng/mL; under setting [3], -466 ± 432 ng/mL; under setting [1], -1068 ± 318 ng/mL; under setting [2], -576 ± 110 ng/mL.

Take “DesaminoTyr-DTrp-Ser-Trp-DPhe-NH2 ([Desaminotyrosyl][dW]SW[dF]-NH2; SMILES NC(=O)[C@@H](Cc1ccccc1)NC(=O)[C@H](Cc1c[nH]c2ccccc12)NC(=O)[C@H](CO)NC(=O)[C@@H](Cc1c[nH]c2ccccc12)NC(=O)CCc1ccc(O)cc1)”: the “Change … (delta)” value by setting is: under setting [1], 3119 ± 488 ng/mL; under setting [2], 3258 ± 682 ng/mL.

For “His-DTrp-DArg-Trp-DPhe-NH2 (chain 1 H[dW][dR]W[dF]-NH2; chain 2 H[dW][dR]W[dF]-NH2; not fully specified; printed as His-DTrp-DArg-Trp-DPhe-NH2)”, the “Change … (delta)” value under setting [3] came to 341 ± 222 ng/mL, the “Change … (delta)” value under setting [1] was -125 ± 101 ng/mL and the “Change … (delta)” value under setting [2] is -122 ± 44 ng/mL.

In the case of “His-DTrp-DLys-Trp-DPhe-Lys-NH2 (H[dW][dK]W[dF]K-NH2; N-terminus assumed; SMILES NCCCC[C@H](NC(=O)[C@@H](Cc1ccccc1)NC(=O)[C@H](Cc1c[nH]c2ccccc12)NC(=O)[C@@H](CCCCN)NC(=O)[C@@H](Cc1c[nH]c2ccccc12)NC(=O)[C@@H](N)Cc1c[nH]cn1)C(N)=O)”, the “Change … (delta)” value under setting [4] turned out to be 952 ± 200 ng/mL; the “Change … (delta)” value under setting [5] is 324 ± 181 ng/mL; the “Change … (delta)” value under setting [3] came to 134 ± 91 ng/mL; the “Change … (delta)” value under setting [1] was -83 ± 132 ng/mL; the “Change … (delta)” value under setting [2] was -175 ± 59 ng/mL.

In the case of “His-DTrp-DLys-Trp-DPhe-NH2 (H[dW][dK]W[dF]-NH2; N-terminus assumed; SMILES NCCCC[C@@H](NC(=O)[C@@H](Cc1c[nH]c2ccccc12)NC(=O)[C@@H](N)Cc1c[nH]cn1)C(=O)N[C@@H](Cc1c[nH]c2ccccc12)C(=O)N[C@H](Cc1ccccc1)C(N)=O)”, the “Change … (delta)” value reads like this: under setting [4], 1765 ± 160 ng/mL; under setting [3], 949 ± 178 ng/mL; under setting [2], 91 ± 103 ng/mL.

For the substance “His-DTrp-DTrp-Phe-Met-NH2 (H[dW][dW]FM-NH2; N-terminus assumed; SMILES CSCC[C@H](NC(=O)[C@H](Cc1ccccc1)NC(=O)[C@@H](Cc1c[nH]c2ccccc12)NC(=O)[C@@H](Cc1c[nH]c2ccccc12)NC(=O)[C@@H](N)Cc1c[nH]cn1)C(N)=O)”, the “Change … (delta)” value under setting [4] is 1542 ± 523 ng/mL; the “Change … (delta)” value under setting [5] came out at 323 ± 69 ng/mL; the “Change … (delta)” value under setting [3] is 445 ± 188 ng/mL; the “Change … (delta)” value under setting [1] came out at 287 ± 68 ng/mL; the “Change … (delta)” value under setting [2] was -319 ± 95 ng/mL.

With “Tyr-DTrp-DLys-Trp-DPhe-NH2 (Y[dW][dK]W[dF]-NH2; N-terminus assumed; SMILES NCCCC[C@@H](NC(=O)[C@@H](Cc1c[nH]c2ccccc12)NC(=O)[C@@H](N)Cc1ccc(O)cc1)C(=O)N[C@@H](Cc1c[nH]c2ccccc12)C(=O)N[C@H](Cc1ccccc1)C(N)=O)”, the “Change … (delta)” value under setting [3] is -480 ± 95 ng/mL and the “Change … (delta)” value under setting [2] was -363 ± 66 ng/mL.

“Tyr-DTrp-DTrp-Phe-Phe-NH2 (Y[dW][dW]FF-NH2; N-terminus assumed; SMILES NC(=O)[C@H](Cc1ccccc1)NC(=O)[C@H](Cc1ccccc1)NC(=O)[C@@H](Cc1c[nH]c2ccccc12)NC(=O)[C@@H](Cc1c[nH]c2ccccc12)NC(=O)[C@@H](N)Cc1ccc(O)cc1)”: the “Change … (delta)” value by setting is: under setting [4], 1274 ± 329 ng/mL; under setting [1], 1034 ± 182 ng/mL; under setting [2], -167 ± 157 ng/mL.

“Tyr-DTrp-Lys-Trp-DPhe-NH2 (Y[dW]KW[dF]-NH2; N-terminus assumed; SMILES NCCCC[C@H](NC(=O)[C@@H](Cc1c[nH]c2ccccc12)NC(=O)[C@@H](N)Cc1ccc(O)cc1)C(=O)N[C@@H](Cc1c[nH]c2ccccc12)C(=O)N[C@H](Cc1ccccc1)C(N)=O)”: the “Change … (delta)” value (peptide antagonist 100 μg/ml + stimulator His-DTrp-Ala-Trp-DPhe-Lys-NH2 10 ng/ml) is -555 ± 121 ng/mL.

The values above are taken from US9724381B2 (THE ADMINISTRATORS OF THE TULANE EDUCATIONAL FUND, priority 2009, dated 2017).
